The values below come from patent publication US20200222478A1 (published 2020).

In the first experiment the target is T1, HLA-A*03:01 (human, biotinylated heavy chain).
T1 construct: Conditional HLA class I complex first loaded with a UV-labile peptide, exchanged for the test peptide after UV; also called conditional HLA class I complex
Put plainly: UV peptide exchange + HLA class I ELISA. Background: An ELISA detects its analyte on a solid surface through an enzyme-linked reagent.
Procedure: (§1) The HLA class I ELISA is an enzyme immunoassay based on the detection of beta2-microglobulin (B2M) of (peptide-stabilized) HLA class I complexes. To this end streptavidin was bound onto polystyrene microtiter wells. […] Non-bound material was removed by washing. Subsequently, horseradish peroxidase (HRP)-conjugated antibody to human B2M was added. […] In the latter case B2M was removed during the washing step. After removal of non-bound HRP conjugate by washing, a substrate solution was added to the wells. A coloured product formed in proportion to the amount of intact HLA complex present in the samples. After the reaction was terminated by the addition of a stop solution, absorbance was measured in a microtiter plate reader.
In the case of NMVENGCYL [P59 9-mer peptide (FOXA1 (F254V))], the “exchange rate vs Pos peptide” value came out at 4.5%.

GVLRRLLCR [P37 9-mer peptide (TSTD1-F11R fusion)]: the “exchange rate vs Pos peptide” value amounted to 6.4%.

As to IQYSCMGLM [P50 9-mer peptide (AR (W742C))], the “exchange rate vs Pos peptide” value stood at 5.5%.

For the molecule FFKRAAEGF [P77 9-mer peptide (AR-V3 splice variant)], the “exchange rate vs Pos peptide” value amounted to 2.8%.

As to NSKMALNSL [P35 9-mer peptide (TMPRSS2-ERG fusion)], the “exchange rate vs Pos peptide” value amounted to 4.2%.

Regarding FPVGAEGTF [P27 9-mer peptide (FAM126B-ORC2 fusion)], the “exchange rate vs Pos peptide” value amounted to 4.5%.

On to STRRAVRRM (Synthetic 9-mer fragment) [P16 9-mer peptide (MSMB-NCOA4 fusion)], for which the “exchange rate vs Pos peptide” value was determined as 6.1%.

A further experiment deals with T2, HLA-A*02:01 (human, biotinylated heavy chain).
T2 construct: Conditional HLA class I complex first loaded with a UV-labile peptide, exchanged for the test peptide after UV; also called conditional HLA class I complex
Put plainly: UV peptide exchange + HLA class I ELISA.
Procedure: as §1
NMVENGCYL [P59 9-mer peptide (FOXA1 (F254V))]: the “exchange rate vs Pos peptide” value worked out at 11.9%.

In the case of GVLRRLLCR [P37 9-mer peptide (TSTD1-F11R fusion)], the “exchange rate vs Pos peptide” value amounted to 12.5%.

As to IQYSCMGLM [P50 9-mer peptide (AR (W742C))], the “exchange rate vs Pos peptide” value was found to be 8.8%.

For NSKMALNSL [P35 9-mer peptide (TMPRSS2-ERG fusion)], the “exchange rate vs Pos peptide” value was found to be 12.5%.

For the molecule FPVGAEGTF [P27 9-mer peptide (FAM126B-ORC2 fusion)], the “exchange rate vs Pos peptide” value amounted to 10%.

Turning to STRRAVRRM (Synthetic 9-mer fragment) [P16 9-mer peptide (MSMB-NCOA4 fusion)], the “exchange rate vs Pos peptide” value came out at 10.4%.

The next experiment deals with T3, HLA-B*07:02 (human, biotinylated heavy chain).
T3 construct: Conditional HLA class I complex first loaded with a UV-labile peptide, exchanged for the test peptide after UV; also called conditional HLA class I complex
Put plainly: UV peptide exchange + HLA class I ELISA.
Procedure: as §1
NMVENGCYL [P59 9-mer peptide (FOXA1 (F254V))]: the “exchange rate vs Pos peptide” value came out at 7.5%.

On to IQYSCMGLM [P50 9-mer peptide (AR (W742C))], for which the “exchange rate vs Pos peptide” value was 10.4%.

Take FFKRAAEGF [P77 9-mer peptide (AR-V3 splice variant)]: the “exchange rate vs Pos peptide” value was determined as 14.2%.

With NSKMALNSL [P35 9-mer peptide (TMPRSS2-ERG fusion)], the “exchange rate vs Pos peptide” value turned out to be 12.1%.

With FPVGAEGTF [P27 9-mer peptide (FAM126B-ORC2 fusion)], the “exchange rate vs Pos peptide” value amounted to 7.8%.

Turning to STRRAVRRM (Synthetic 9-mer fragment) [P16 9-mer peptide (MSMB-NCOA4 fusion)], the “exchange rate vs Pos peptide” value came to 13.7%.

A further experiment addresses T4, HLA-A*24:02 (human, biotinylated heavy chain).
T4 construct: Conditional HLA class I complex first loaded with a UV-labile peptide, exchanged for the test peptide after UV; also called conditional HLA class I complex
Put plainly: UV peptide exchange + HLA class I ELISA.
Procedure: as §1
Take NMVENGCYL [P59 9-mer peptide (FOXA1 (F254V))]: the “exchange rate vs Pos peptide” value was -0.5%.

With GVLRRLLCR [P37 9-mer peptide (TSTD1-F11R fusion)], the “exchange rate vs Pos peptide” value was -0.1%.

As for IQYSCMGLM [P50 9-mer peptide (AR (W742C))], the “exchange rate vs Pos peptide” value turned out to be 0.1%.

With FFKRAAEGF [P77 9-mer peptide (AR-V3 splice variant)], the “exchange rate vs Pos peptide” value came out at 1.7%.

For the molecule NSKMALNSL [P35 9-mer peptide (TMPRSS2-ERG fusion)], the “exchange rate vs Pos peptide” value is 0.2%.

FPVGAEGTF [P27 9-mer peptide (FAM126B-ORC2 fusion)]: the “exchange rate vs Pos peptide” value came out at 0.7%.

Regarding STRRAVRRM (Synthetic 9-mer fragment) [P16 9-mer peptide (MSMB-NCOA4 fusion)], the “exchange rate vs Pos peptide” value was found to be 0.8%.

For a further experiment, the target named is T5, HLA-A*01:01 (human, biotinylated heavy chain).
T5 construct: Conditional HLA class I complex first loaded with a UV-labile peptide, which is cleaved by UV and exchanged for the test peptide; captured on streptavidin by its biotinylated heavy chain; also called conditional HLA class I complex
Put plainly: UV peptide exchange + HLA class I ELISA.
Procedure: as §1
For NMVENGCYL [P59 9-mer peptide (FOXA1 (F254V))], the “exchange rate vs Pos peptide” value stood at 2.2%.

For GVLRRLLCR [P37 9-mer peptide (TSTD1-F11R fusion)], the “exchange rate vs Pos peptide” value came out at 1.4%.

For the molecule IQYSCMGLM [P50 9-mer peptide (AR (W742C))], the “exchange rate vs Pos peptide” value came out at 2.3%.

For FFKRAAEGF [P77 9-mer peptide (AR-V3 splice variant)], the “exchange rate vs Pos peptide” value came out at 1.9%.

Turning to NSKMALNSL [P35 9-mer peptide (TMPRSS2-ERG fusion)], the “exchange rate vs Pos peptide” value is 2.5%.

FPVGAEGTF [P27 9-mer peptide (FAM126B-ORC2 fusion)]: the “exchange rate vs Pos peptide” value turned out to be 4.8%.

Consider STRRAVRRM (Synthetic 9-mer fragment) [P16 9-mer peptide (MSMB-NCOA4 fusion)], for which the “exchange rate vs Pos peptide” value turned out to be 5.5%.

The target of the next experiment is T6, HLA-B*08:01 (human, biotinylated heavy chain).
T6 construct: Conditional HLA class I complex first loaded with a UV-labile peptide, exchanged for the test peptide after UV; also called conditional HLA class I complex
Put plainly: UV peptide exchange + HLA class I ELISA.
Procedure: as §1
Turning to NMVENGCYL [P59 9-mer peptide (FOXA1 (F254V))], the “exchange rate vs Pos peptide” value was 5.5%.

Consider GVLRRLLCR [P37 9-mer peptide (TSTD1-F11R fusion)], for which the “exchange rate vs Pos peptide” value came out at 3.3%.

As to IQYSCMGLM [P50 9-mer peptide (AR (W742C))], the “exchange rate vs Pos peptide” value amounted to 4.7%.

Turning to FFKRAAEGF [P77 9-mer peptide (AR-V3 splice variant)], the “exchange rate vs Pos peptide” value is 3.4%.

Regarding NSKMALNSL [P35 9-mer peptide (TMPRSS2-ERG fusion)], the “exchange rate vs Pos peptide” value came out at 13.7%.

As for FPVGAEGTF [P27 9-mer peptide (FAM126B-ORC2 fusion)], the “exchange rate vs Pos peptide” value was determined as 6.4%.

STRRAVRRM (Synthetic 9-mer fragment) [P16 9-mer peptide (MSMB-NCOA4 fusion)]: the “exchange rate vs Pos peptide” value stood at 6.2%.
